From the supplement of paper PMC11780869

Test system: Bacillus subtilis
Assay: cleaved RNA product abundance (RNA/gDNA barcode ratio) relative to median wild-type variant (ratio to wild type); higher = more accumulation of the downstream cleavage product
Details: cleavage site: cggR-gapA (positions -7 to +36 mutated)
Procedure, shortened: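 Sequencing of barcodes from gel-selected, reverse-transcribed cleaved RNA and from genomic DNA, with UMI collapsing, yielded a per-construct RNA:gDNA ratio. Scaled to the median construct with the unmutated site, this ratio is the cleaved product abundance. The barcoded reporters (truncated aprE or tetM mRNAs with mutagenized RNase Y cleavage-site windows) were integrated into the B. subtilis chromosome, and cultures grew in LB at 37°C from OD600 0.0003 to 0.3.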

[1] = experiment (reporter, strain, medium): exp 2b: truncated aprE reporter, strain BJT200
[2] = experiment (reporter, strain, medium): exp 4a: truncated aprE reporter, strain BJT201 with 2% xylose (RNase J1 expressed)
[3] = experiment (reporter, strain, medium): exp 6: tetM reporter, strain 168

| Sequence | cleaved RNA product abundance [1] | cleaved RNA product abundance [2] | cleaved RNA product abundance [3] |
| --- | --- | --- | --- |
| ACAGACGAAGGAGCCGCAAAGAAGTTATTACGGAATGAATAATCCCTCAATATAAATATCTCTCACTTATTTAAA | 0.1 | 0.0966 | – |
| ACAGACGAAGGAGCCGCAAAGAAGTTATTACGGCATGAATAATCCCTCAATATAAATATCTCTCACTTATTTAAA | 0.0982 | 0.204 | – |
| ACAGACGAAGGAGCCGCAAAGAAGTTATTACGGGAAGAATAATCCCTCAATATAAATATCTCTCACTTATTTAAA | 0.152 | 0.322 | – |
| ACAGACGAAGGAGCCGCAAAGAAGTTATTACGGGATAAATAATCCCTCAATATAAATATCTCTCACTTATTTAAA | – | 0.416 | – |
| ACAGACGAAGGAGCCGCAAAGAAGTTATTACGGGATGAAAAATCCCTCAATATAAATATCTCTCACTTATTTAAA | 0.223 | 0.321 | – |
| ACAGACGAAGGAGCCGCAAAGAAGTTATTACGGGATGAATAAACCCTCAATATAAATATCTCTCACTTATTTAAA | – | 0.158 | – |
| ACAGACGAAGGAGCCGCAAAGAAGTTATTACGGGATGAATAAGCCCTCAATATAAATATCTCTCACTTATTTAAA | 0.189 | – | – |
| ACAGACGAAGGAGCCGCAAAGAAGTTATTACGGGATGAATAATACCTCAATATAAATATCTCTCACTTATTTAAA | – | 0.112 | – |
| ACAGACGAAGGAGCCGCAAAGAAGTTATTACGGGATGAATAATCACTCAATATAAATATCTCTCACTTATTTAAA | 0.108 | – | – |
| ACAGACGAAGGAGCCGCAAAGAAGTTATTACGGGATGAATAATCCCTAAATATAAATATCTCTCACTTATTTAAA | 0.428 | 0.394 | – |
| ACAGACGAAGGAGCCGCAAAGAAGTTATTACGGGATGAATAATCCCTCAATATAAATATCTCTCACTTATTTAAA | 0.32 | 0.46 | 0.453 |
| ACAGACGAAGGAGCCGCAAAGAAGTTATTACGGGATGAATAATCCCTCAATATAAATATTTCTCACTTATTTAAA | – | 0.399 | – |
| ACAGACGAAGGAGCCGCAAAGAAGTTATTACGGGATGAATAATCCCTCAATATAAATCTCTCTCACTTATTTAAA | – | 0.368 | – |
| ACAGACGAAGGAGCCGCAAAGAAGTTATTACGGGATGAATAATCCCTCAATATAGATATCTCTCACTTATTTAAA | – | 0.351 | – |
| ACAGACGAAGGAGCCGCAAAGAAGTTATTACGGGATGAATAATCCCTCGATATAAATATCTCTCACTTATTTAAA | – | 0.259 | – |
| ACAGACGAAGGAGCCGCAAAGAAGTTATTACGGGATGAATAATCCCTTAATATAAATATCTCTCACTTATTTAAA | – | 1.47 | – |
| ACAGACGAAGGAGCCGCAAAGAAGTTATTACGGGATGAATAATGCCTCAATATAAATATCTCTCACTTATTTAAA | – | 0.128 | – |
| ACAGACGAAGGAGCCGCAAAGAAGTTATTACGGGATGAATCATCCCTCAATATAAATATCTCTCACTTATTTAAA | 0.316 | – | – |
| ACAGACGAAGGAGCCGCAAAGAAGTTATTACGGGATGAATGATCCCTCAATATAAATATCTCTCACTTATTTAAA | – | 0.247 | – |
| ACAGACGAAGGAGCCGCAAAGAAGTTATTACGGGATGATTAATCCCTCAATATAAATATCTCTCACTTATTTAAA | – | 0.204 | – |
| ACAGACGAAGGAGCCGCAAAGAAGTTATTACGGGTTGAATAATCCCTCAATATAAATATCTCTCACTTATTTAAA | 0.087 | 0.16 | – |
| ACAGACGAAGGAGCCGCAAAGAAGTTATTACGGTATGAATAATCCCTCAATATAAATATCTCTCACTTATTTAAA | – | 0.141 | – |
| ACAGACGAAGGAGCCGCAAAGAAGTTATTACGTGATGAATAATCCCTCAATATAAATATCTCTCACTTATTTAAA | 0.0928 | 0.113 | – |

| Sequence | cleaved RNA product abundance [1] | cleaved RNA product abundance [2] | cleaved RNA product abundance [3] |
| --- | --- | --- | --- |
| ACAGACGAAGGAGCCGCAAAGAAGTTATTACTGGATGAATAATCCCTCAATATAAATATCTCTCACTTATTTAAA | – | 0.199 | – |
| ACAGACGAAGGAGCCGCAAAGAAGTTATTAGAGGATGAATAATCCCTCAATATAAATATCTCTCACTTATTTAAA | – | 0.301 | – |
| ACAGACGAAGGAGCCGCAAAGAAGTTATTAGGAGATGAATAATCCCTCAATATAAATATCTCTCACTTATTTAAA | – | 0.24 | – |
| ACAGACGAAGGAGCCGCAAAGAAGTTATTAGGGCATGAATAATCCCTCAATATAAATATCTCTCACTTATTTAAA | – | 0.132 | – |
| ACAGACGAAGGAGCCGCAAAGAAGTTATTAGGGGAAGAATAATCCCTCAATATAAATATCTCTCACTTATTTAAA | 0.278 | – | – |
| ACAGACGAAGGAGCCGCAAAGAAGTTATTAGGGGATGAATAATACCTCAATATAAATATCTCTCACTTATTTAAA | – | 0.211 | – |
| ACAGACGAAGGAGCCGCAAAGAAGTTATTAGGGGATGAATAATCACTCAATATAAATATCTCTCACTTATTTAAA | 0.114 | 0.112 | – |
| ACAGACGAAGGAGCCGCAAAGAAGTTATTAGGGGATGAATAATCCCTCAAAATAAATATCTCTCACTTATTTAAA | 0.351 | 0.476 | – |
| ACAGACGAAGGAGCCGCAAAGAAGTTATTAGGGGATGAATAATCCCTCAATATAAATATCTCTCACTTATTTAAA | 0.699 | 0.718 | 0.377 |
| ACAGACGAAGGAGCCGCAAAGAAGTTATTAGGGGATGAATAATCCCTGAATATAAATATCTCTCACTTATTTAAA | – | 0.371 | – |
| ACAGACGAAGGAGCCGCAAAGAAGTTATTAGGGGATGAATAATCCCTTAATATAAATATCTCTCACTTATTTAAA | – | 0.808 | – |
| ACAGACGAAGGAGCCGCAAAGAAGTTATTAGGGGATGAATAATCCTTCAATATAAATATCTCTCACTTATTTAAA | – | 0.636 | – |
| ACAGACGAAGGAGCCGCAAAGAAGTTATTAGGGGATGACTAATCCCTCAATATAAATATCTCTCACTTATTTAAA | – | 0.63 | – |
| ACAGACGAAGGAGCCGCAAAGAAGTTATTAGGGGATGGATAATCCCTCAATATAAATATCTCTCACTTATTTAAA | 0.481 | 0.709 | – |
| ACAGACGAAGGAGCCGCAAAGAAGTTATTAGGGGATTAATAATCCCTCAATATAAATATCTCTCACTTATTTAAA | – | 0.866 | – |
| ACAGACGAAGGAGCCGCAAAGAAGTTATTAGGGGTTGAATAATCCCTCAATATAAATATCTCTCACTTATTTAAA | – | 0.254 | – |
| ACAGACGAAGGAGCCGCAAAGAAGTTATTAGGGTATGAATAATCCCTCAATATAAATATCTCTCACTTATTTAAA | – | 0.361 | – |
| ACAGACGAAGGAGCCGCAAAGAAGTTATTAGGTGATGAATAATCCCTCAATATAAATATCTCTCACTTATTTAAA | – | 0.331 | – |
| ACAGACGAAGGAGCCGCAAAGAAGTTATTAGTGGATGAATAATCCCTCAATATAAATATCTCTCACTTATTTAAA | 0.295 | 0.385 | – |
| ACAGACGAAGGAGCCGCAAAGAAGTTATTATAGGATGAATAATCCCTCAATATAAATATCTCTCACTTATTTAAA | 0.149 | 0.203 | – |
| ACAGACGAAGGAGCCGCAAAGAAGTTATTATCGGATGAATAATCCCTCAATATAAATATCTCTCACTTATTTAAA | – | 0.178 | – |
| ACAGACGAAGGAGCCGCAAAGAAGTTATTATGAGATGAATAATCCCTCAATATAAATATCTCTCACTTATTTAAA | 0.0958 | 0.147 | – |
| ACAGACGAAGGAGCCGCAAAGAAGTTATTATGGAATGAATAATCCCTCAATATAAATATCTCTCACTTATTTAAA | – | 0.105 | – |
